Test results taken from the supplement of paper PMC9112550, “Optimization of the antimicrobial peptide Bac7 by deep mutational scanning” (BMC Biology, 2022).

tested on: Escherichia coli TOP10; assay: shrunken log2 fold change of peptide-encoding DNA abundance (4.5 h post-induction vs induction); higher = less antimicrobial activity (less host growth inhibition); details: time post-induction: 4.5 h; library: site-saturation at positions 5, 18, 19, 20
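Note: peptides expressed intracellularly from a pBAD plasmid library in pooled LB shake-flask culture, induced with 0.3% L-arabinose, DNA abundance read by NGS, three biological replicates, DESeq2 with apeglm shrinkage.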

Row | Sequence | shrunken log2 fold change
1 | RRIRARPPRLPRPRPRPEWKPRP | 0.0235
2 | RRIRARPPRLPRPRPRPEYEPRP | 0.262
3 | RRIRARPPRLPRPRPRPEYIPRP | 0.0332
4 | RRIRARPPRLPRPRPRPFAMPRP | 0.236
5 | RRIRARPPRLPRPRPRPFAWPRP | 0.122
6 | RRIRARPPRLPRPRPRPFDFPRP | 0.00925
7 | RRIRARPPRLPRPRPRPFDLPRP | 0.0229
8 | RRIRARPPRLPRPRPRPFDNPRP | 0.098
9 | RRIRARPPRLPRPRPRPFEGPRP | 0.0201
10 | RRIRARPPRLPRPRPRPFFAPRP | 0.67
11 | RRIRARPPRLPRPRPRPFGFPRP | 0.261
12 | RRIRARPPRLPRPRPRPFGIPRP | 0.0411
13 | RRIRARPPRLPRPRPRPFGLPRP | 2.49
14 | RRIRARPPRLPRPRPRPFGSPRP | -0.0315
15 | RRIRARPPRLPRPRPRPFICPRP | -0.1
16 | RRIRARPPRLPRPRPRPFLIPRP | -0.367
17 | RRIRARPPRLPRPRPRPFMEPRP | 0.0746
18 | RRIRARPPRLPRPRPRPFMTPRP | 0.178
19 | RRIRARPPRLPRPRPRPFMYPRP | -0.225
20 | RRIRARPPRLPRPRPRPFNGPRP | 0.0657
21 | RRIRARPPRLPRPRPRPFNLPRP | -0.173
22 | RRIRARPPRLPRPRPRPFPRPRP | 0.0695

Row | Sequence | shrunken log2 fold change
23 | RRIRARPPRLPRPRPRPFPYPRP | -0.164
24 | RRIRARPPRLPRPRPRPFQTPRP | -0.0176
25 | RRIRARPPRLPRPRPRPFRAPRP | 0.0497
26 | RRIRARPPRLPRPRPRPFRSPRP | -0.0968
27 | RRIRARPPRLPRPRPRPFTFPRP | -0.0365
28 | RRIRARPPRLPRPRPRPFVKPRP | 0.0302
29 | RRIRARPPRLPRPRPRPFWWPRP | 0.923
30 | RRIRARPPRLPRPRPRPGCFPRP | 0.96
31 | RRIRARPPRLPRPRPRPGCVPRP | 0.851
32 | RRIRARPPRLPRPRPRPGERPRP | 0.56
33 | RRIRARPPRLPRPRPRPGHMPRP | -0.0412
34 | RRIRARPPRLPRPRPRPGMIPRP | 0.237
35 | RRIRARPPRLPRPRPRPGNAPRP | 0.73
36 | RRIRARPPRLPRPRPRPGPDPRP | 0.455
37 | RRIRARPPRLPRPRPRPGPMPRP | 0.676
38 | RRIRARPPRLPRPRPRPGQCPRP | 0.203
39 | RRIRARPPRLPRPRPRPGQFPRP | 0.109
40 | RRIRARPPRLPRPRPRPGWTPRP | 0.525
41 | RRIRARPPRLPRPRPRPGYGPRP | 0.277
42 | RRIRARPPRLPRPRPRPGYNPRP | -0.403
43 | RRIRARPPRLPRPRPRPGYTPRP | 0.324
44 | RRIRARPPRLPRPRPRPHAAPRP | 0.635

Row | Sequence | shrunken log2 fold change
45 | RRIRARPPRLPRPRPRPHAEPRP | 0.955
46 | RRIRARPPRLPRPRPRPHCMPRP | 0.19
47 | RRIRARPPRLPRPRPRPHCWPRP | 0.17
48 | RRIRARPPRLPRPRPRPHDGPRP | 0.373
49 | RRIRARPPRLPRPRPRPHDIPRP | -0.08
50 | RRIRARPPRLPRPRPRPHEDPRP | 0.627
51 | RRIRARPPRLPRPRPRPHESPRP | 0.779
52 | RRIRARPPRLPRPRPRPHFMPRP | 0.787
53 | RRIRARPPRLPRPRPRPHFYPRP | 0.107
54 | RRIRARPPRLPRPRPRPHHCPRP | -0.859
55 | RRIRARPPRLPRPRPRPHILPRP | -0.207
56 | RRIRARPPRLPRPRPRPHIRPRP | -0.0962
57 | RRIRARPPRLPRPRPRPHKGPRP | 0.187
58 | RRIRARPPRLPRPRPRPHKQPRP | -0.0718
59 | RRIRARPPRLPRPRPRPHKYPRP | -0.243
60 | RRIRARPPRLPRPRPRPHLHPRP | 0.0371
61 | RRIRARPPRLPRPRPRPHLKPRP | 0.01
62 | RRIRARPPRLPRPRPRPHLQPRP | 0.439
63 | RRIRARPPRLPRPRPRPHPCPRP | 0.206
64 | RRIRARPPRLPRPRPRPHPTPRP | 0.648
65 | RRIRARPPRLPRPRPRPHQVPRP | -0.17
66 | RRIRARPPRLPRPRPRPHRSPRP | -0.0655

Row | Sequence | shrunken log2 fold change
67 | RRIRARPPRLPRPRPRPHRTPRP | -0.115
68 | RRIRARPPRLPRPRPRPHTHPRP | -0.175
69 | RRIRARPPRLPRPRPRPHTTPRP | -0.481
70 | RRIRARPPRLPRPRPRPHVGPRP | 0.34
71 | RRIRARPPRLPRPRPRPHWKPRP | -0.00664
72 | RRIRARPPRLPRPRPRPHYRPRP | 0.0684
73 | RRIRARPPRLPRPRPRPIEFPRP | -0.0488
74 | RRIRARPPRLPRPRPRPIEKPRP | 0.15
75 | RRIRARPPRLPRPRPRPIFMPRP | 0.104
76 | RRIRARPPRLPRPRPRPIILPRP | -0.262
77 | RRIRARPPRLPRPRPRPIIRPRP | -0.357
78 | RRIRARPPRLPRPRPRPIISPRP | -0.129
79 | RRIRARPPRLPRPRPRPIKNPRP | 0.00937
80 | RRIRARPPRLPRPRPRPIMAPRP | 0.0923
81 | RRIRARPPRLPRPRPRPIMIPRP | -0.261
82 | RRIRARPPRLPRPRPRPIPYPRP | -0.0777
83 | RRIRARPPRLPRPRPRPIRKPRP | 0.0897
84 | RRIRARPPRLPRPRPRPIRVPRP | 0.125
85 | RRIRARPPRLPRPRPRPITSPRP | 0.157
86 | RRIRARPPRLPRPRPRPIVPPRP | 0.0453
87 | RRIRARPPRLPRPRPRPIVVPRP | -0.14
88 | RRIRARPPRLPRPRPRPIWKPRP | -0.0642

Row | Sequence | shrunken log2 fold change
89 | RRIRARPPRLPRPRPRPIWRPRP | 0.426
90 | RRIRARPPRLPRPRPRPIYDPRP | -0.138
91 | RRIRARPPRLPRPRPRPKAAPRP | 0.878
92 | RRIRARPPRLPRPRPRPKAGPRP | 0.213
93 | RRIRARPPRLPRPRPRPKECPRP | 0.0495
94 | RRIRARPPRLPRPRPRPKELPRP | 0.404
95 | RRIRARPPRLPRPRPRPKENPRP | 0.379
96 | RRIRARPPRLPRPRPRPKFNPRP | -0.129
97 | RRIRARPPRLPRPRPRPKGEPRP | 0.556
98 | RRIRARPPRLPRPRPRPKHIPRP | -0.219
99 | RRIRARPPRLPRPRPRPKHMPRP | -0.158
100 | RRIRARPPRLPRPRPRPKHVPRP | 0.0861
101 | RRIRARPPRLPRPRPRPKIAPRP | 0.177
102 | RRIRARPPRLPRPRPRPKKFPRP | 0.138
103 | RRIRARPPRLPRPRPRPKLFPRP | 0.233
104 | RRIRARPPRLPRPRPRPKMRPRP | 1.64
105 | RRIRARPPRLPRPRPRPKMSPRP | 0.126
106 | RRIRARPPRLPRPRPRPKPCPRP | 0.162
107 | RRIRARPPRLPRPRPRPKPMPRP | 0.831
108 | RRIRARPPRLPRPRPRPKPYPRP | 0.0727
109 | RRIRARPPRLPRPRPRPKQGPRP | 0.373
